The labels stand for the following.
B1: Azoarcus group I ribozyme (parent)
chain: GUGCCUUGCGCCGGGAAACCACGCAAGGGAUGGUGUCAAAUUCGGCGAAACCUAAGCGCCCGCCCGGGCGUAUGGCAACGCCGAGCCAAGCUUCGGCGCCUGCGCCGAUGAAGGUGUAGAGACUAGACGGCACCCACCUAAGGCAAACGCUAUGGUGAAGGCAUAGUCCAGGGAGUGGCGAAAGUCACACAAACCGG

The variants in the data set derive from B1. The experiment in a line: reverse-splicing fitness (ratio to wild type); higher = more active; in vitro selection; Mg2+ level not given. In outline:
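An in vitro group I ribozyme library with randomized positions was T7-transcribed and gel-purified. In triplicate, 10 pmol RNA in EPPS pH 7.5 was reacted with 50 pmoles of a 30-nt RNA substrate for 1 h at 37 °C across several added MgCl2 levels (1–48 mM), then stopped with EDTA. Products were reverse transcribed from a substrate-complementary primer, PCR-amplified and sequenced (HiSeq 4000). Fitness is a variant's read proportion after selection over that before, normalised to wild type.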
For the variant GUGCCUUGCGCCGGGAAACCACGCAAGGGAUGGUGUCAAAUUCGGCGAAACCUAAGCGCCCGCCCGGGCGUAUGGCAACGCGGAGCCAAGCUUCGGCGCCUGCGCCGAUGGAGGUGUAGUGACUAGACGGCACCCACCUAAGGCAAACGAUAUGGUGAAGGCAUAGUCGAGGGAGUGGCGAAAGUCACACAAACCGG, the reverse-splicing fitness worked out at 0.00433.
On to GUGCCUUGCGCCGGGAAACCACGCAAGGGAUGGUGUCAAAUUCGGCGAAACCUAAGCGCCCGCCCGGGCGUAUGGCAACGCAGAGCCAAGCUUCGGCGCCUGCGCCGAUGUAGGUGUAGCGACUAGACGGCACCCACCUAAGGCUAACGUUAUGGUGAAGGCAUAGUCGAGGGAGAGGCGAAAGUCACACAAACCGG, for which the reverse-splicing fitness was found to be 0.016.
Take GUGCCUUGCGCCGGGAAACCACGCAAGGGAUGGUGUCAAAUUCGGCGAAACCUAAGCGCCCGCCCGGGCGUAUGGCAACGCUGAGCCAAGCUUCGGCGCCUGCGCCGAUGAAGGUGUAGGGACUAGACGGCACCCACCUAAGGCGAACGAUAUGGUGAAGGCAUAGUCAAGGGAGCGGCGAAAGUCACACAAACCGG: the reverse-splicing fitness worked out at 0.0191.
In the case of GUGCCUUGCGCCGGGAAACCACGCAAGGGAUGGUGUCAAAUUCGGCGAAACCUAAGCGCCCGCCCGGGCGUAUGGCAACGCCGAGCCAAGCUUCGGCGCCUGCGCCGAUGGAGGUGUAGUGACUAGACGGCACCCACCUAAGGCAAACGAUAUGGUGAAGGCAUAGUCCAGGGAGCGGCGAAAGUCACACAAACCGG, the reverse-splicing fitness came to 0.0464.
For GUGCCUUGCGCCGGGAAACCACGCAAGGGAUGGUGUCAAAUUCGGCGAAACCUAAGCGCCCGCCCGGGCGUAUGGCAACGCGGAGCCAAGCUUCGGCGCCUGCGCCGAUGUAGGUGUAGUGACUAGACGGCACCCACCUAAGGCGAACGUUAUGGUGAAGGCAUAGUCUAGGGAGGGGCGAAAGUCACACAAACCGG the value was 0.00302; for GUGCCUUGCGCCGGGAAACCACGCAAGGGAUGGUGUCAAAUUCGGCGAAACCUAAGCGCCCGCCCGGGCGUAUGGCAACGCCGAGCCAAGCUUCGGCGCCUGCGCCGAUGCAGGUGUAGUGACUAGACGGCACCCACCUAAGGCAAACGCUAUGGUGAAGGCAUAGUCGAGGGAGUGGCGAAAGUCACACAAACCGG, 0.0632.
For GUGCCUUGCGCCGGGAAACCACGCAAGGGAUGGUGUCAAAUUCGGCGAAACCUAAGCGCCCGCCCGGGCGUAUGGCAACGCCGAGCCAAGCUUCGGCGCCUGCGCCGAUGCAGGUGUAGUGACUAGACGGCACCCACCUAAGGCGAACGCUAUGGUGAAGGCAUAGUCUAGGGAGUGGCGAAAGUCACACAAACCGG the value was 0.0781; for GUGCCUUGCGCCGGGAAACCACGCAAGGGAUGGUGUCAAAUUCGGCGAAACCUAAGCGCCCGCCCGGGCGUAUGGCAACGCAGAGCCAAGCUUCGGCGCCUGCGCCGAUGGAGGUGUAGCGACUAGACGGCACCCACCUAAGGCAAACGGUAUGGUGAAGGCAUAGUCUAGGGAGCGGCGAAAGUCACACAAACCGG, 0.0107.
As for GUGCCUUGCGCCGGGAAACCACGCAAGGGAUGGUGUCAAAUUCGGCGAAACCUAAGCGCCCGCCCGGGCGUAUGGCAACGCCGAGCCAAGCUUCGGCGCCUGCGCCGAUGAAGGUGUAGGGACUAGACGGCACCCACCUAAGGCGAACGCUAUGGUGAAGGCAUAGUCCAGGGAGAGGCGAAAGUCACACAAACCGG, the figure is 0.193; as for GUGCCUUGCGCCGGGAAACCACGCAAGGGAUGGUGUCAAAUUCGGCGAAACCUAAGCGCCCGCCCGGGCGUAUGGCAACGCGGAGCCAAGCUUCGGCGCCUGCGCCGAUGGAGGUGUAGUGACUAGACGGCACCCACCUAAGGCUAACGUUAUGGUGAAGGCAUAGUCCAGGGAGCGGCGAAAGUCACACAAACCGG, 0.0184.
Consider GUGCCUUGCGCCGGGAAACCACGCAAGGGAUGGUGUCAAAUUCGGCGAAACCUAAGCGCCCGCCCGGGCGUAUGGCAACGCGGAGCCAAGCUUCGGCGCCUGCGCCGAUGAAGGUGUAGUGACUAGACGGCACCCACCUAAGGCCAACGGUAUGGUGAAGGCAUAGUCAAGGGAGAGGCGAAAGUCACACAAACCGG, for which the reverse-splicing fitness was found to be 0.00219.
On to GUGCCUUGCGCCGGGAAACCACGCAAGGGAUGGUGUCAAAUUCGGCGAAACCUAAGCGCCCGCCCGGGCGUAUGGCAACGCUGAGCCAAGCUUCGGCGCCUGCGCCGAUGUAGGUGUAGUGACUAGACGGCACCCACCUAAGGCCAACGUUAUGGUGAAGGCAUAGUCCAGGGAGUGGCGAAAGUCACACAAACCGG, for which the reverse-splicing fitness amounted to 0.00815.
For GUGCCUUGCGCCGGGAAACCACGCAAGGGAUGGUGUCAAAUUCGGCGAAACCUAAGCGCCCGCCCGGGCGUAUGGCAACGCUGAGCCAAGCUUCGGCGCCUGCGCCGAUGCAGGUGUAGCGACUAGACGGCACCCACCUAAGGCGAACGGUAUGGUGAAGGCAUAGUCAAGGGAGAGGCGAAAGUCACACAAACCGG the value was 0.0111; for GUGCCUUGCGCCGGGAAACCACGCAAGGGAUGGUGUCAAAUUCGGCGAAACCUAAGCGCCCGCCCGGGCGUAUGGCAACGCAGAGCCAAGCUUCGGCGCCUGCGCCGAUGAAGGUGUAGAGACUAGACGGCACCCACCUAAGGCUAACGUUAUGGUGAAGGCAUAGUCGAGGGAGGGGCGAAAGUCACACAAACCGG, 0.00539; for GUGCCUUGCGCCGGGAAACCACGCAAGGGAUGGUGUCAAAUUCGGCGAAACCUAAGCGCCCGCCCGGGCGUAUGGCAACGCCGAGCCAAGCUUCGGCGCCUGCGCCGAUGAAGGUGUAGUGACUAGACGGCACCCACCUAAGGCGAACGCUAUGGUGAAGGCAUAGUCCAGGGAGAGGCGAAAGUCACACAAACCGG, 0.704.
